B1: gGT30: glycosyltransferase protein with 451 amino acids, SEQ ID NO.: 6 (protein)
chain: MATQKCFRVLVFPWLAHGHISPFLELARKLIEKGNFFIYFCSTPINLISIKKKLSGDDHQNYTKSIQLVEHNLPTLPQLPPHYHTTDGLPPNLNPTLRKAFEMSKLSFPNTLNTLKPDLLICDDLFQWPEIVASSHGVPVVRFQTCSVTAASFLAHIFTNPDVTYPFPAIYLHEYETDQIRRCVDAVFESGREESRNLLVVNTSKAIEEKYFYYYSLLRGNTKIMPVGPLIQQAPNGDEDMKVIEWLDKKDPCSTVFVSFGSEYFMQKEEVEEMAHGLELSNVNFIWVFRAPVGAEKVKLPLGFVERVGGRGIVMEGWAPQARILGHSSIGGFVSHCGWNSVLETINFGVPIIGMPMKFEQPMNARLLSELGVCVEIVGDETRRFGREEVGNVIREVVGGKIGDDLRRKVKELGAKIKEKQEEEMDDVLDELVQICNKKKRTVVHHHHHH
modifications: Panax ginseng; gGT30
B2: gGT13: glycosyltransferase protein with 476 amino acids, SEQ ID NO.: 4 (protein)
chain: MGAELILIPSPGVGHLVSTVEIAKLLISRDERLSITVLVMKFSHDTGVTAYTRSLQKDAPNRIVFVDLPQNESLISSPKSFFTSFIESQTSPVRDSVRQIVSRSDSNKLAGFVIDMFCTPMIDVANEFGVPTYVFFTSGAAFLGLQFYHLSLSDEHNQDLTEYKDTDVELSIPSFINPVPAKVLPSVILNKEGSTMLQSISRRFKEAKAILVNTFAELEPHAIKALGDNCKIPPIYPVGPIINLKNKEGTTQNHSSEDGIISWLDNQPPSSVVFLCFGSFGSFDEGQVREIANGLEQSGQRFLWSLRRRPEKMELPKDYENPEEVLPEGFIERTSGMGKVIGWAPQTAILSHPAVGGFVSHCGWNSTLESIWCGVPMATWPIYAEQQINAFELVKELGMAVEIKMDYREDYIFAPENNLVVTADQIEKGMRCLMMDGESEMRKKVEEMKEKSRMAMVKGGSSYISLGHFIEDVMRN
modifications: Panax ginseng; gGT13

Legend:
prostate cancer cells = settings: cited from earlier work
osteoclasts = settings: cited from earlier work
lung cancer cells 3LL = lung cancer cells 3LL (mice); cited from earlier work
[1] = tested on: Morris liver cancer cells; settings: Morris liver cancer cells (rats); cited from earlier work
B-16 melanoma cells = B-16 melanoma cells (mice); cited from earlier work
HeLa cells = HeLa cells (human); cited from earlier work
[2] = Glycosyltransfering reaction with crude enzyme, substrate PPD; type: biochemical; settings: cell lysate of recombinant yeasts, method of Example 4
[3] = Glycosyltransfering reaction with crude enzyme, substrate PPT; type: biochemical; settings: cell lysate of recombinant yeasts, method of Example 4
[4] = Glycosyltransfering reaction with crude enzyme, substrate Rh2; type: biochemical; settings: cell lysate of recombinant yeasts, method of Example 4
Procedure: (§1) The lysate supernatant of the recombinant yeasts expressing the empty vector was used as control.
(§2) The reaction was conducted under 35° C. for 12 hrs, then stopped by adding 100 μL of butanol. The product were extracted, dried in vacuum, and dissolved in methanol.
(§3) The reaction products were first detected by thin layer chromatography (TLC). […]
(§4) The lysate supernatant of the recombinant yeast expressing empty vectors was used as control. The reaction was conducted under 35° C. for 12 hrs, and then stopped by adding 100 μL of butanol. The product were extracted, dried in vacuum, and dissolved in methanol.
(§5) The glycosyltransfering reactions of ginsenosides Rh2 and F2 were catalyzed by using the lysate supernatant of the recombinant yeasts expressing 3GT1, 3GT2, 3GT3 and 3GT4 as crude enzymes. The 100 μL reaction system is shown as Table 3. The reaction was conducted under 35° C. for 12 hrs, and then stopped by adding 100 μL of butanol. The product were extracted, dried in vacuum, and dissolved in methanol.

[5] = Glycosyltransfering reaction with crude enzyme, substrate Rg3; type: biochemical; settings: cell lysate of recombinant yeasts, method of Example 4
Procedure: as §1, §2, §3

[6] = Glycosyltransfering reaction with crude enzyme, substrate CK; type: biochemical; settings: cell lysate of recombinant yeasts, method of Example 4
Procedure: (§6) According to the method as in Example 4, the cell lysate of recombinant yeasts expressing gGT13 and gGT30 were used to catalyze PPD and PPT.
as §5, with “ginsenosides” for “ginsenosides Rh2”, “ginsengenins” for “F2”, “lysis” for “lysate”, “enzymes. The lysis supernatant of recombinant E. coli expressing empty vectors was used as control.” for “enzymes.”, “hrs,” for “hrs, and”

[7] = Glycosyltransfering reaction with crude enzyme, substrate F2; type: biochemical; settings: cell lysate of recombinant yeasts, method of Example 4
Procedure: as §6, §4, §5

[8] = Glycosyltransfering reaction with crude enzyme, substrate F1; type: biochemical; settings: cell lysate of recombinant yeasts, method of Example 4
Procedure: as §6
as §4, with “lysis” for “lysate”, “of” for “of the”, “E. coli” for “yeast”, “control. The 100 μL reaction system is shown as Table 3.” for “control.”, “hrs,” for “hrs, and”

[9] = Glycosyltransfering reaction with crude enzyme, substrate Rh1; type: biochemical; settings: cell lysate of recombinant yeasts, method of Example 4
Procedure: as §1, §2, §3

[10] = Glycosyltransfering reaction with crude enzyme, substrate Rg1; type: biochemical; settings: cell lysate of recombinant yeasts, method of Example 4

Row | Molecule | inhibition of prostate cancer cells (prostate cancer cells) | cytotoxicity to osteoclasts (osteoclasts) | inhibition of the generation of osteoclasts (osteoclasts) | inhibition of proliferation (lung cancer cells 3LL) | inhibition of proliferation [1] | inhibition of proliferation (B-16 melanoma cells) | inhibition of proliferation (HeLa cells) | conversion of PPD [2] | conversion of PPT [3] | conversion of Rh2 [4] | conversion of Rg3 [5] | conversion of CK [6] | conversion of F2 [7] | conversion of F1 [8] | conversion of Rh1 [9] | conversion of Rg1 [10]
1 | CC(C)=CCC[C@](C)(O)[C@H]1CC[C@]2(C)[C@@H]1[C@H](O)C[C@@H]1[C@@]3(C)CC[C@H](O[C@@H]4O[C@H](CO)[C@@H](O)[C@H](O)[C@H]4O)C(C)(C)[C@@H]3CC[C@]12C [ginsenoside Rh2, 3-O-β-(D-glucopyranosyl)-20(S)-protopanaxadiol] | significantly inhibit | strong cytotoxicity | poorly inhibits | can inhibit the proliferation | can inhibit the proliferation | can inhibit the proliferation | can inhibit the proliferation |  |  |  |  |  |  |  |  | 
2 | B1 |  |  |  |  |  |  |  | neither converted | neither converted | neither converted | neither converted | neither converted | neither converted | neither converted | neither converted | neither converted
3 | B2 |  |  |  |  |  |  |  | neither converted | neither converted | neither converted | neither converted | neither converted | neither converted | neither converted | neither converted | neither converted

From patent US9976167B2, “Group of glycosyltransferases and use thereof” (Shanghai Institutes For Biological Sciences, Chinese …, priority 2012, dated 2018)
